Positions count from the first letter of the chain named. One block for each molecule: values may come before it.
What was measured:
Format in all cases: biochemical, Z. mays
[1] = system: 4-hydroxyphenylpyruvate dioxygenase (HPPD); assay: ON rate ratio: HPPD reaction rate with vs without inhibitor in the 70 to 90 second interval; conditions: for ON ratio (parameters with tembotrione): Table 5
Method in brief: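 Indicator of inhibitor on-rate: reaction velocity in the 70 to 90 second window with 4 μM inhibitor divided by that without. Reactions contained 100 μM HPP and 60 or 120 nM HPPD; slower binding gives a larger ratio.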

[2] = system: 4-hydroxyphenylpyruvate dioxygenase (HPPD); assay: OFF rate ratio: release of inhibitor from pre-formed enzyme-inhibitor complex; conditions: for OFF ratio (parameters with tembotrione): Table 5
Method in brief: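 Inhibitor release from pre-formed complex (enzyme 7.2 μM, inhibitor 8 μM, 1 h RT) tracked as accelerating HPPD activity at 320 nm over 12 min, coupled via 50 nM HGD with 100 μM HPP at pH 7. OFF rate ratio: steady-state velocity relative to uninhibited initial velocity.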

[3] = system: 4-hydroxyphenylpyruvate dioxygenase (HPPD); assay: Insensitivity parameter (ON × OFF) and trait fitness (ON × OFF × kcat/KM or × kcat); set-up: key to ON × OFF / Insensitivity, mesotrione, ON × OFF / Insensitivity, tembotrione, ON × OFF / Insensitivity, topramezone, ON × OFF / Insensitivity, sulcotrione, ON × OFF / Insensitivity, isoxaflutole (DKN), ON × OFF: insensitivity = ON rate ratio × OFF rate ratio (surrogate for KD); conditions: for ON × OFF × kcat, Value / ON × OFF × kcat, Fold vs wt / ON × OFF, fold vs wt / ON × OFF (parameters with tembotrione): Table 5; for ON × OFF × kcat, Fold vs wt / ON × OFF, fold vs wt: fold vs maize wild type HPPD; for ON × OFF (parameters with tembotrione): insensitivity parameter
Method in brief: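 Trait fitness combines catalysis and insensitivity as kcat/KM × ON rate ratio × OFF rate ratio. The insensitivity parameter is the product of ON and OFF rate ratios, used in place of KD because the ON rate ratio is inverse.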

[4] = system: 4-hydroxyphenylpyruvate dioxygenase (HPPD); assay: HPPD activity coupled assay with HGD; substrate saturation kinetic parameters (kcat, KM)
Method in brief: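 Coupled continuous assay: His-tagged HPPD (5 to 240 nM, E. coli-expressed, Ni-NTA-purified) with 50 nM P. aeruginosa HGD in 25 mM Hepes pH 7, 2 mM ascorbate, 10 μM FeSO4; maleylacetoacetate followed at 320 nm. KM and Vmax from Lineweaver-Burke fits over 3.33–100 μM HPP.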

[5] = system: 4-hydroxyphenylpyruvate dioxygenase (HPPD); assay: Estimate of kcat from initial rate at saturating hydroxyphenylpyruvate without inhibitor (ON rate ratio assay)
Method in brief: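 kcat was estimated from the initial reaction rate with known enzyme level (60 or 120 nM HPPD). Hydroxyphenylpyruvate was at a saturating 100 μM, with no inhibitor present.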

[6] = DKN (diketonitrile form of isoxaflutole)
[7] = Table 6, single substitutions in SEQ ID NO:2
[8] = Table 5, single substitutions in Round 7 variant 9070 (SEQ ID NO:2), estimate from initial rate at saturating hydroxyphenylpyruvate without inhibitor
[9] = Table 7, tembotrione, combinatorial variants
[10] = substrate saturation kinetic analysis

- ON ratio (parameters with tembotrione) ([1]; tembotrione): 0.74
- OFF ratio (parameters with tembotrione) ([2]; tembotrione): 0.14
- Insensitivity parameter, ON × OFF [3, 6]: 0.21
- Insensitivity parameter, ON × OFF ([3]; Mesotrione, Table 6): 0.41
- Insensitivity parameter, ON × OFF ([3]; Sulcotrione): 0.50
- ON × OFF, fold vs wt ([3]; tembotrione): 20.2
- ON × OFF (parameters with tembotrione) ([3]; tembotrione): 0.10
- Insensitivity parameter, ON × OFF ([3]; Tembotrione): 0.17
- Insensitivity parameter, ON × OFF ([3]; Topramezon): 0.23
B1: 214T: single substitution 214T in SEQ ID NO:2 (protein)
chain: MGPTPTATAAGAAVAAASAAEQAAFRLVGHRNFVRFNPRSDRFQTLAFHHVELWCADAASAAGRFSFALGVPLAARSDLSTGNSAHASLLLRSGSLSLLFTAPYAHGADAATAALPSFSAAAARRFAADHGLAVRAVALRVADAEDAFRASVAAGARPAFGPVDLGRGFRLAEVELYGDVVLRYVSYPDGAAGEPFLPGFEGVASPGAADYGLTRFDHIVGNVPELAPAAAYMAGFTGFHEFAEFTTEDVGTTESGLNSMALANNSENVLLPLNEPVHGTKRRSQIQTFLDHHGGPGVQHIALASDDVLRTLREMRARSAMGGFEFLPPPLSDYYDGVRRCAGDVLTEAQINECQELGVMVDRDDQGVLLQIFTKPVGDRPTFFLEIIQRIGCMEKDEKGQEYQKGGCGGFGKGNFGQLFKSIEDYEKSLEAKQAAAAATAQGS
modifications: Zea mays variant form created by artificial means.
- ON × OFF × kcat, Value ([3]; tembotrione): 4.03
- ON × OFF × kcat, Fold vs wt ([3]; tembotrione): 3.76
- Km ([4]; Table 6): 2.94 µM
- kcat [4, 7]: 1.4 s⁻¹
- kcat [5, 8]: 0.653 s⁻¹

- ON ratio (parameters with tembotrione) ([1]; tembotrione): 0.78
- OFF ratio (parameters with tembotrione) ([2]; tembotrione): 0.13
- Insensitivity parameter, ON × OFF [3, 6]: 0.22
- Insensitivity parameter, ON × OFF ([3]; Mesotrione, Table 6): 0.42
- Insensitivity parameter, ON × OFF ([3]; Sulcotrione): 0.51
- ON × OFF, fold vs wt ([3]; tembotrione): 19.7
- ON × OFF (parameters with tembotrione) ([3]; tembotrione): 0.10
- Insensitivity parameter, ON × OFF ([3]; Tembotrione): 0.17
- Insensitivity parameter, ON × OFF ([3]; Topramezon): 0.23
B2: 342V: single substitution 342V in SEQ ID NO:2 (protein)
chain: B1 chain with T214S, A342V
modifications: Zea mays variant form created by artificial means.
- ON × OFF × kcat, Value ([3]; tembotrione): 4.08
- ON × OFF × kcat, Fold vs wt ([3]; tembotrione): 3.82
- Km ([4]; Table 6): 2.59 µM
- kcat [4, 7]: 0.903 s⁻¹
- kcat [5, 8]: 0.677 s⁻¹

- ON rate ratio [1, 9]: 0.700
- Insensitivity, mesotrione, Rate ratio ON ([1]; inhibitor mesotrione): 0.64
- Insensitivity, tembotrione, Rate ratio ON ([1]; inhibitor tembotrione): 0.70
- OFF rate ratio [2, 9]: 0.395
- Insensitivity, mesotrione, Rate ratio OFF ([2]; inhibitor mesotrione): 1.00
- Insensitivity, tembotrione, Rate ratio OFF ([2]; inhibitor tembotrione): 0.39
- ON × OFF ([3]; Megatable 3, shuffled variants): 0.276
- ON × OFF [3, 9]: 0.276
- Insensitivity, mesotrione, ON × OFF ([3]; inhibitor mesotrione): 0.64
- Insensitivity, mesotrione, Trait Fitness ([3]; inhibitor mesotrione): 8.7
- Insensitivity, tembotrione, ON × OFF ([3]; inhibitor tembotrione): 0.28
- Insensitivity, tembotrione, Trait fitness ([3]; inhibitor tembotrione): 3.74
B3: P056028-F-05 (protein)
chain: B1 chain with A191G, T214S, Q366E
modifications: Zea mays variant form created by artificial means.
- ON × OFF × kcat ([3]; Megatable 3, shuffled variants): 7.57
- ON × OFF × kcat [3, 9]: 7.57
- Km [4, 10]: 2.39 µM
- kcat [4, 10]: 0.538 s⁻¹
- kcat ([5]; Megatable 3, shuffled variants): 0.457 s⁻¹
- kcat ([5]; Table 7, combinatorial variants): 0.457 s⁻¹

Source: US11015206B2, “Compositions and methods comprising sequences having hydroxyphenylpyruvate dioxygenase (HPPD) activity” (PIONEER HI-BRED INTERNATIONAL, INC., priority 2014, dated 2021)
